The source of these data is paper PMC8351736 (Molecular Biology of the Cell, 2021).

T1: GST-Aim21^504,507,509E (S. cerevisiae, UniProt P40563 1-679, Aim21^504,507,509E | Aim21^504,507,509E | Aim21^504,507,509E)
T1 sequence (looked up): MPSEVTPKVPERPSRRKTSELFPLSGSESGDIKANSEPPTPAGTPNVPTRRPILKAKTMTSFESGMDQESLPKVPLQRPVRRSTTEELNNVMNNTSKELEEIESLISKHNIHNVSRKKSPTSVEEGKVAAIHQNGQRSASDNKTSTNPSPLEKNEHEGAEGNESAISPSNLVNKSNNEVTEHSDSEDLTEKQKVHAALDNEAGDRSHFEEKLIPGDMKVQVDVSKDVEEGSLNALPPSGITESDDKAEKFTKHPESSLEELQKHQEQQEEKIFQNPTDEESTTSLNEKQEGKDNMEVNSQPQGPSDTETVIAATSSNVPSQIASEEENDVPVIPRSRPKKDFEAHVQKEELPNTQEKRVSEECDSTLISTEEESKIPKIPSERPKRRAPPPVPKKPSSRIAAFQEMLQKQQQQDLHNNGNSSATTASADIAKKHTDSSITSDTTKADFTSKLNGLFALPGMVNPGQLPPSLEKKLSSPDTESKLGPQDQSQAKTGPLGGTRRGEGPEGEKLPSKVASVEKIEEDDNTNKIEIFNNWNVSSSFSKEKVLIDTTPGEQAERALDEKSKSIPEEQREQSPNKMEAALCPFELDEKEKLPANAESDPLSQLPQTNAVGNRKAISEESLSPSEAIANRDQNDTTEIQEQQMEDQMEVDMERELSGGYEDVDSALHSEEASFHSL

T2: His-tagged Aim21 (His-Aim21) (S. cerevisiae, UniProt P40563 1-679)
T2 sequence (looked up): T1 sequence (looked up) with E504R, E507R, E509R

T3: His-Tda2 I103Q (S. cerevisiae, UniProt P40045 2-126, I103Q)
T3 sequence: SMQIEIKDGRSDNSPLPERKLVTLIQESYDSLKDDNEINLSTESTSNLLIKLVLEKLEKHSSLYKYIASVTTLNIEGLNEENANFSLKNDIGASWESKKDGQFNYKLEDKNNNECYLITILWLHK

T4: His-Tda2 K107E (S. cerevisiae, UniProt P40045 2-126, K107E)
T4 sequence: T3 sequence with Q102I, K106E

T5: Aim21^1-600-GST (S. cerevisiae, UniProt P40563 1-600)
T5 sequence (looked up): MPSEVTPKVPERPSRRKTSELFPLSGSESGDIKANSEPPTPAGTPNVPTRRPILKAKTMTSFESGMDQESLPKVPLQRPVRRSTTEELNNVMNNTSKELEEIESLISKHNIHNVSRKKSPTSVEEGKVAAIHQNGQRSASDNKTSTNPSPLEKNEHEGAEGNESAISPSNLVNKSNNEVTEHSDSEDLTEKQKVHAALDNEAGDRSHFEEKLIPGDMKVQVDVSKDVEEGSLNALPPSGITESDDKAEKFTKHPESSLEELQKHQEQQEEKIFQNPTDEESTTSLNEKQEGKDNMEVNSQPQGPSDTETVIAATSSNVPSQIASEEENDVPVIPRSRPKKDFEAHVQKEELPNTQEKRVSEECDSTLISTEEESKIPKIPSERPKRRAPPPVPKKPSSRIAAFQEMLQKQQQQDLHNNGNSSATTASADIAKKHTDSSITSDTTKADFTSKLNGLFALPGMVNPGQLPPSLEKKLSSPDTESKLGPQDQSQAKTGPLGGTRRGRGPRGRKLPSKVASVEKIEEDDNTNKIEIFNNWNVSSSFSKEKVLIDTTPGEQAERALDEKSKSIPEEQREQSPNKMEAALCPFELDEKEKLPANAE

B1: 6-histidine-tagged Tda2 (His-Tda2) (natural protein, S. cerevisiae)
chain: T3 sequence with Q102I
B2: FITC-Aim21^CPI+TBR with 25 µM His-Tda2 (reconstituted Tda2-Aim21 peptide complex) (complex, S. cerevisiae)
peptide: KTGPLGGTRRGRGPRGRKLPSKVASVEKIEEDDNTNKIEIFNNWNVS
chain: T3 sequence with Q102I
modifications: FITC label (printed FITC-KTGPLGG...)
B3: His-Tda2 F86V (natural protein, S. cerevisiae)
chain: T3 sequence with F85V, Q102I
B4: His-Tda2 D101A (natural protein, S. cerevisiae)
chain: T3 sequence with D100A, Q102I
B5: 6-histidine-tagged actin capping protein (His-Cap1/2 heterodimer) (complex, S. cerevisiae)
chain 1: MSSSKFEEVINKIINDSPPGELREVYDDLIKITSENSKNTILDAIENYNVQNCIPIEVNGNSVIISKYNKEGAKFFDPVNSVIFSVNHLERKGLDIEPYEFTHAKIEKGQLKELHDKLHEYLLQSFPGDVSFAVYPVPEEISKISIIIVSTKYNPNNFWNGHWRSSYIYDLETRELSGQISTQVHYYEDGNVSFQSGKDINQSNVDDVVCTIRDIETNFENDLDLSFFDLNEKQFKALRRRLPVTRSKINWGSAIGSYRLGKNAAEGK
chain 2: MSDAQFDAALDLLRRLNPTTLQENLNNLIELQPNLAQDLLSSVDVPLSTQKDSADSNREYLCCDYNRDIDSFRSPWSNTYYPELSPKDLQDSPFPSAPLRKLEILANDSFDVYRDLYYEGGISSVYLWDLNEEDFNGHDFAGVVLFKKNQSDHSNWDSIHVFEVTTSPSSPDSFNYRVTTTIILHLDKTKTDQNSHMMLSGNLTRQTEKDIAIDMSRPLDVIFTSHVANLGSLIEDIESQMRNLLETVYFEKTRDIFHQTKNAAIASSAEEANKDAQAEVIRGLQSL

Data set [1] has as its target B5. The data set is described as follows: fluorescence polarisation.
In data set [2] the target is B1. The data set is described as follows: fluorescence polarisation.
Data set [3] concerns the target T1, GST-Aim21^504,507,509E. The data set can be described thus: pull-down.
The target in data set [4] is T2, His-tagged Aim21 (His-Aim21). The data set is described as follows: SEC + other: sucrose density gradient fractionation.
Data set [5] deals with the molecule itself. The description is as above.
Data set [6] has as its target B5. The data set is described as follows: fluorescence polarisation. This is another data set of the same source. (In general: In fluorescence polarisation assays a small probe gives low polarisation when free and higher when bound to something large.)
Data set [7] concerns the molecule itself. The data set is described as follows: SEC. In general terms: SEC sorts molecules by how far they enter the pores of the column.
Data set [8] deals with T3, His-Tda2 I103Q. The data set is described as follows: pull-down.
Data set [9] concerns the target T4, His-Tda2 K107E. The data set is described as follows: pull-down.
Data set [10] has as its target B3. The data set can be described thus: pull-down.
Data set [11] has as its target B3. The data set is described as follows: fluorescence polarisation.
Data set [12] addresses T5, Aim21^1-600-GST. The data set can be described thus: pull-down.

Where a chain is given by its changes, count along the chain named. Numbers in names are those of the source. Like-named read-outs stand apart in the source and are kept apart here. Ends that are not written are not given here. * marks the point of attachment. FITC = O=C1OC2(c3ccc(O)cc3Oc3cc(O)ccc32)c2ccc(NC(=S)*)cc21

As to {FITC}-KTGPLGGTRRGRGPRGRKLPSKVASVEKIEEDDNTNKIEIFNNWNVS [FITC-labeled Aim21 peptide spanning AA 493–539, with the CPI motif and the TBR (FITC-Aim21^CPI+TBR)], the Kd (usually the free concentration of one partner at which half of the binding sites on the other are occupied at equilibrium, for simple one-to-one binding) in data set [1] was found to be 3100 nM. Also, the binding result in data set [2] is reported as “binds”.
For the molecule B1, the binding result in [3] is on record as “binds”. The entries for the “stoichiometry N” value in data set [4] and in data set [5] were 2 Aim21 molecules per Tda2 homodimer and 2, respectively.
Turning to B2, binding in [6] was characterised by a dissociation constant (Kd) of 250 nM.
Take B3: in data set [7], the binding result was “binds”.
As for KLPSKVASVEKIEEDDNTNKIEIFNNWNVSSSFSKEKVLIDTTPGE (domain or fragment, S. cerevisiae, UniProt P40563 510-555, looked up) [GST-Aim21^510-555 (wild type)], the binding result in data set [8], in [9] and in data set [10] was “binds” throughout.
Take B4: the binding result in data set [7] is “binds”.
For {FITC}-KIEIFNNWNVS [FITC-labeled Aim21 peptide spanning AA 529–539 (FITC-Aim21)], in data set [11], the binding result was “binds”.
For B5, the binding result in data set [12] is “binds”.
